Results on one variant are retold here after paper PMC5880107, “The Sequence-specific Peptide-binding Activity of the Protein Sulfide Isomerase AGR2 Directs Its Stable Binding to the Oncogenic Receptor EpCAM*^([image sbox.jpg])” (Molecular & Cellular Proteomics : MCP, 2018).

B1: His-AGR2 WT (mature AGR2, amino acids 21-175, N-terminal 6xHis tag; plasmid pmAGR2) [human] / His-EpEX-CO, extracellular domain of EpCAM (amino acids 24-265), N-terminal 6xHis tag [human] (parent)
chain 1: RDTTVKPGAKKDTKDSRPKLPQTLSRGWGDQLIWTQTYEEALYKSKTSSKPLMIIHHLDECPHSQALKKVFAENKEIQKLAEQFVLLNLVYETTDKHLSPDGQYVPRIMFVDPSLTVRADITGRYSNRLYAYEPADTALLLDNMKKALKLLKTEL
chain 2: QEECVCENYKLAVNCFVNNNRQCQCTSVGAQNTVICSKLAAKCLVMKAEMNGSKLGRRAKPEGALQNNDGLYDPDCDESGLFKAKQCNGTSMCWCVNTAGVRRTDKDTEITCSERVRTYWIIIELKHKAREKPYDSKSLRTALQKEITTRYQLDPKFITSILYENNVITIDLVQNSSQKTQNDVDIADVAYYFEKDVKGESLFHSKKMDLTVNGEQLDLDPGQTLIYYVDEKAPEFSMQGLK

Variants of B1 are the subject of one assay. The assay can be described thus: ELISA (His-EpCAM solid phase; His-AGR2 mobile phase). The note with it: with His-EpEX-CO, point at 0.5 μg AGR2 (highest dose of the titration), +DTT Blocking (DTT only in the blocking step, before AGR2 binding), read off a plot.
Consider chain 1 S114A, for which the response amounted to 110 RLU.

The same assay, now with this note: with His-EpEX-CO, point at 0.5 μg AGR2 (highest dose of the titration), no DTT in the blocking step, read off a plot.
In the case of chain 1 S114A, the response came out at 160 RLU.
